How the values were obtained:
[1] = biological target: SARS-CoV-2 "Delta" B.1.617.2 full-length Spike protein on pseudovirus (SARS-CoV-2, UniProt P0DTC2 14-1273); assay: cell-based or functional assay
[2] = biological target: SARS-CoV-2 "Beta" SA B.1.351 full-length Spike protein on pseudovirus (SARS-CoV-2, UniProt P0DTC2 14-1273); assay: cell-based or functional assay
[3] = biological target: SARS-CoV-2 "Delta-plus" B.1.617.2.1 full-length Spike protein on pseudovirus (SARS-CoV-2, UniProt P0DTC2 14-1273); assay: cell-based or functional assay
[4] = biological target: SARS-CoV-2 "Gamma" Brazil P.1.B.1.1.28 full-length Spike protein on pseudovirus (SARS-CoV-2, UniProt P0DTC2 14-1273); assay: cell-based or functional assay
[5] = biological target: SARS-CoV-2 "Alpha" UK B.1.1.7 full-length Spike protein on pseudovirus (SARS-CoV-2, UniProt P0DTC2 14-1273); assay: cell-based or functional assay
[6] = biological target: SARS-CoV-2 "Epsilon" B.1.427/9 full-length Spike protein on pseudovirus (SARS-CoV-2, UniProt P0DTC2 14-1273); assay: cell-based or functional assay
[7] = biological target: SARS-CoV-2 spike receptor-binding domain (RBD) (SARS-CoV-2, UniProt P0DTC2 319-541)

Row | Binder | Pseudovirus Neturalization [1] | Pseudovirus Neturalization [2] | Pseudovirus Neturalization [3] | Pseudovirus Neturalization [4] | Pseudovirus Neturalization [5] | Pseudovirus Neturalization [6] | Kd [7] | kon [7]
1 | AB-009281 (antibody, V domains shown) VH: EVQLVETGGGLIQPGGSLRLSCAASGFTVSSNYMSWVRQAPGKGLEWVSVIYSGGSTYYADSVKGRFTISRDNSKNTLYLQMNSLRAEDTAVYYCARDLYYYGMDVWGQGTTVTVSS VL: DIQLTQSPSFLSASVGDRVTITCRASQGISSYLAWYQQKPGKAPKLLIYAASTLQSGVPSRFSGSGSGTEFTLTISSLQPEDFATYYCQQLNSYPTFGQGTKVEIK | 0.032 µg/mL | > 50 µg/mL | 2.29 µg/mL | > 50 µg/mL | > 50 µg/mL | 0.041 µg/mL | – | –
2 | AB-009271 (antibody, V domains shown) VH: EVQLVESGGGLIQPGGSLRLSCAASGFIVSSNYMSWVRQAPGKGLEWVSVIYSGGSTYYADSVKGRFTISRDNSKNTLYLQMNSLRAEDTAVYYCARDYGDFYFDYWGQGTLVTVSS VL: EIVMTQSPATLSVSPGERATLSCRASQSVSSNLAWYQQKPGQAPRLLIYGASTRATGIPARFSGSGSGTEFTLTISSLQSEDFAVYYCQQYYNWPRTFGQGTKVEIK | 0.012 µg/mL | > 50 µg/mL | > 50 µg/mL | > 50 µg/mL | 0.275 µg/mL | 0.028 µg/mL | – | –
3 | AB-009613 (antibody, V domains shown) VH: EVQLVESGGGLIQPGGSLRLSCAASGFTVSSNYMSWVRQAPGKGLEWVSVIYSGGSTYYADSVKGRFTISRDNSKNTLYLQMNSLRAEDTAVYYCARDYGDFYFDYWGQGTLVTVSS VL: not shown | 0.101 µg/mL | > 50 µg/mL | > 50 µg/mL | > 50 µg/mL | 7.23 µg/mL | 1.16 µg/mL | – | –
4 | AB-009734 (antibody, V domains shown) VH: QVHLVQSGAEVKTPGASVRVSCKASGYTFTSHYMHWVRQAPGQGLEWMGLINPSGSGTAYPQHFQGRVTMTRDTSTTTDYMDLSSLRSEDTAMYFCARMERSGAFDLWGQGTMVTVSS VL: EIVLTQSPGTLSLSPGERATLSCRASQTISSRYLAWYYQKPGQAPRLLIQGSSIRATGIPDRFSGSGSGTDFTLTISRLEPEDFAVYYCQHYGSSPPMYTFGQGTKLEIK | > 50 µg/mL | > 50 µg/mL | > 50 µg/mL | 40.6 µg/mL | > 50 µg/mL | > 50 µg/mL | – | –
5 | AB-009747 (antibody, V domains shown) VH: QVQLVESGGGVVQPGGSLRLSCAASGFTFSNYGMHWVRQAPGKGLEWVAFIRYDGSNEYYADSVKGRFTISRDNSKNTLYLHMNSLRPEDTAVYYCAKQGLLSNYYYGMDVWGQGTTVTVSS VL: not shown | – | – | – | – | – | – | 9.8 nM | 108000 M⁻¹ s⁻¹
6 | AB-009346 (antibody, V domains shown) VH: EVQLVESGGGVVRPGGSLRLSCAASGFTFDDYGMSWVRQAPGKGLEWVSGINWNGGSTGYADSVKGRFTISRDNAKNSLYLQMNSLRAEDTALYYCARWPLLGISGYYHYYMDVWGKGTTVTVSS VL: QSALTQPRSVSGSPGQSVTISCTGTSSDVGGYNYVSWYQQHPGKAPKLMIYDVSKRPSGVPDRFSGSKSGNTASLTISGLQAEDEADYYCCSYAGSYTLLFGGGTKLIVL | > 50 µg/mL | > 50 µg/mL | > 50 µg/mL | > 50 µg/mL | 0.114 µg/mL | 33.6 µg/mL | – | –
7 | AB-009614 (antibody, V domains shown) VH: QVQLVESGGGVVQPGRSLRLSCAASGFTFSSYGMHWVRQAPGKGLEWVAVISYDGSNKYYADSVKGRFTISRDNSKNTLYLQMNSLRAEDTAVYYCAKDQKYYDILTGYYRSTYYYYYYGMDVWGQGTTVTVSS VL: not shown | 31.3 µg/mL | > 50 µg/mL | > 50 µg/mL | > 50 µg/mL | > 50 µg/mL | > 50 µg/mL | – | –
8 | AB-009769 (antibody, V domains shown) VH: EVQLVESGGGLVQPGGSLRLSCAASGFTFSSYWMSWVRQAPGKGLEWVANIKQDGSEKYYVDSVKGRFTISRDNAKNSLYLQMNSLRAEDTAVYYCARSPEVLWFGDPVLDNWFDPWGQGTLVTVSS VL: SYELTQPPSVSVSPGQTARITCSGDALPKQYAYWYQQKPGQAPVLVIYKDSERPSGIPERFSGSSSGTTVTLTISGVQAEDEADYYCQSADSSGTYPVVFGGGTKLTVL | > 50 µg/mL | > 50 µg/mL | > 50 µg/mL | > 50 µg/mL | > 50 µg/mL | > 50 µg/mL | – | –
9 | AB-009620 (antibody, V domains shown) VH: QITLKESGPTLVKPTQTLTLTCTFSGFSLSTSGVGVGWIRQPPGKALEWLALIYWDDDKRYSPSLKSRLTITKDTSKNQVVLTMTNMDPVDTATYYCAHHEVATVFDYWGQGTLVTVSS VL: QSALTQPASVSGSPGQSITISCTGTSSDVGAYNYVSWYQQHPGKAPKLMIYEVSNRPSGVSNRFSGSKSGNTASLTISGLQAEDEADYYCSSYTSSSTVFGGGTKLTVL | 0.519 µg/mL | 0.563 µg/mL | 0.809 µg/mL | 0.327 µg/mL | 0.257 µg/mL | 0.974 µg/mL | – | –
10 | AB-009610 (antibody, V domains shown) VH: QVQLVQSGAEVKKPGSSVKVSCKASGGTFSNYAISWVRQAPGQGLEWMGRIIPILGIANYAQKFQGRVTITADKSTSTAYMELSSLRSEDTAVYYCATTPYYYDSSGYYLDYWGQGTLVTVSS VL: not shown | > 50 µg/mL | > 50 µg/mL | > 50 µg/mL | > 50 µg/mL | 2.84 µg/mL | > 50 µg/mL | – | –
11 | AB-009615 (antibody, V domains shown) VH: QVQLVESGGGVVQPGRSLRLSCAASGFTFSSYGMHWVRQAPGKGLEWVAVIWYDGSNKYYADSVKGRFTISRDNSKNTLYLQMNSLRAEDTAVYYCAKVGSPYCSGGSCYSGYFDYWGQGTLVTVSS VL: not shown | > 50 µg/mL | > 50 µg/mL | > 50 µg/mL | > 50 µg/mL | > 50 µg/mL | 38.4 µg/mL | – | –
12 | AB-009661 (antibody, V domains shown) VH: QVQLVESGGGVVQPGRSLRLSCAASGFTFSSYGMHWVRQAPGKGLEWVAVISYDGSNKYYADSVKGRFTISRDNSKNTLYLQMNSLRAEDTAVYYCAKDYGDYGGMDVWGQGTTVTVSS VL: not shown | > 50 µg/mL | > 50 µg/mL | > 50 µg/mL | > 50 µg/mL | > 50 µg/mL | > 50 µg/mL | – | –
13 | AB-009270 (antibody, V domains shown) VH: QMQLVQSGPEVKKPGTSVKVSCKASGFTFTSSAMQWVRQARGQRLEWIGWIVVGSGNTNYAQKFQERVTITRDMSTSTAYMELSSLRSEDTAVYYCAVNYCSSTSCYDAFDIWGQGTMVTVSS VL: not shown | 0.03 µg/mL | 0.169 µg/mL | 0.012 µg/mL | 0.158 µg/mL | 0.117 µg/mL | 0.032 µg/mL | – | –
14 | AB-010021 (antibody, V domains shown, also called AB-0010021) VH: QMQLVQSGPEVKKPGTSVKVSCKASGFTFTSSAVQWVRQARGQRLEWIGWIVVGSGNTNYAQKFQERVTITRDMSTSTAYMELSSLRSEDTAVYYCAAVYCSGGSCLDAFDIWGQGTMVTVSS VL: not shown | 0.574 µg/mL | 8.27 µg/mL | 0.078 µg/mL | 5.39 µg/mL | 2.69 µg/mL | 0.629 µg/mL | – | –
15 | AB-010020 (antibody, V domains shown) VH: QMQLVQSGPEVKKPGTSVKVSCKASGFTFTSSAVQWVRQARGQRLEWIGWIVVGSGNTNYAQKFQERVTITRDMSTSTAYMELSSLRSEDTAVYYCAAPACSSTSCYDGFDIWGQGTMVTVSS VL: not shown | 0.003 µg/mL | 0.018 µg/mL | 0.001 µg/mL | 0.0114 µg/mL | 0.013 µg/mL | 0.003 µg/mL | – | –
16 | AB-009760 (antibody, V domains shown) VH: EVQLVQSGAEVKKPGESLKISCKGSGYSFTSYWIGWVRQMPGKGLEWMGIIYPGDSDTRYSPSFQGQVTISADKSISTAYLQWSSLKASDTAMYYCARSRSSDYFDYWGQGTLVTVSS VL: not shown | > 50 µg/mL | > 50 µg/mL | 46.2 µg/mL | 19.2 µg/mL | 17.7 µg/mL | 14.1 µg/mL | – | –

Reference: patent publication US20240327505A1 (published 2024)
